This data set has as its system GST-TfmR (Xanthomonas citri subsp. citri 306). In words: EMSA. Particulars: LightShift Chemiluminescent EMSA Kit per manufacturer; 1-2 ng biotin DNA, 20 pmol GST-TfmR, 15 min (Fig. 6); buffer, salt, pH and temperature not stated.

The values below come from paper PMC6637906.

What is called Kd is the equilibrium constant for the complex coming apart. In the case of pmhpC/fadE promoter, the Kd amounted to 87 nM.
